According to a protein production outcome set (Wang et al. 2014):

Experiment: label from the status in PepcDB records

Sequence	protein production
MTNTRNENLGYVYGLIAVTAFALTLPAMRAALSALDPVFVALGRGAGAAVLAAVFLWFTRQRLPTREEAKGLIIVAAGAVIGFPLLAAWAMLYVDASHGGVVLGILPLATAVAAALFSNERPSMKFWLFALIGAGLVVGYSLSRAGGTLHPADLALFGSIVCAGVSYAEGARLSKSLGGPQVISWALVFSFPILIIPAIHYAPVSLNLPLESWLGFIYLTVISQYLGFFPWYHGLALGGIAKVGQTQLLQPFLTIIASVLLLGEHADLMTWLVATLVVAVVAVGKHAQVKHNDPESATIADTSPHS	failed
MRTPRRAPEPVQVVKQRRDATLRALVDGVPYIQFLGIEFERRGDELTGILPFDQKLIGNPLLPAIHGGVTAAFLEVTAIITLSWTYLWEDMESGAIDAKGLASGGMPRLPKTIDISTDYLRSGLPRDAYARARIVRSGRRYASVHVEAWQDNRDRLFAQATGHFLMPDRRDS	failed
LRRGHLKLQRDGQIIGHTPEEWEQIFREVWPEYEIEPNPLPGYAPFDIGMWLTVEAPAYAVWIDPEDGSEYWAG	failed
MIARIPKDIPDLPAIPGMPVLMPSAVPAAAVVAPTRRPLTTAFRLLVALAATAGVTIDLILGSPLRVLTYFTIQSSVLVALTFTLSAWRAWAARRPLPALLTGGTLLYAVITGLVYHLLLAHEPAPFTMTGQAGPLTGWQALTNQLLHTAVPVAVVLDWLLLTGSGRLRLRQASAWLLYPLAYLALTLARGELILPGTPGRYLYPFLDVEQHGYKSVLGNALLLGLAFYALAVLLVTLDRVRPNPLRRRAKNGFRLQPPVG	failed
MKIATTSSAFDLLPKDQKYKTKRVSYNDFSDLSFLPVVNPKIKRQKKTLEEEVDSTSKAKSSRTSLTKSVTTTTKLTKPEETITASSKECLQETKTNKKPDLRDLIAKAQEKIQNKREINHRREYITRQRIAARLALNQMVATVSFDDHLNYHREMEQRGYTFIQDQVDNLNMFSLWSRSDYNGITNSVLETSNTTMRSDEDSSRKKQQIIKKKSNTFPTDVKEH	failed
MPLLTIGDQFPAYQLTALIGGDLSKVDAKQPGDYFTTITSDEHPGKWRVVFFWPKDFTFVCPTEIAAFSKLNDEFEDRDAQILGVSIDSEFAHFQWRAQHNDLKTLPFPMLSDIKRELSQAAGVLNADGVADRVTFIVDPNNEIQFVSATAGSVGRNVDEVLRVLDALQSDELCACNWRKGDPTLDAGELLKASA	not failed
MSGLRVYSTSVTGSREIKSQQSEVTRILDGKRIQYQLVDISQDNALRDEMRTLAGNPKATPPQIVNGNHYCGDYELFVEAVEQDTLQEFLKLA	not failed
MSLTLYQKKSKMIGIIIPDLNNRFYAQIIDGIQEVIQKEGYTALISFSTNSDVKKYQNAIINFENNNVDGIITSAFTIPPNFHLNTPLVMYDSANINDDIVRIVSNNTKGGKESIKLLSKKIEKVLIQHWPLSLPTIRERIEAMTAEASKLKIDYLLEETPENNPYISAQSALNKSNQFDAIITVNDLYAAEIIKEAKRRNLKIPDDFQLVGYDNNILCGYTSPTISTIDQNPKLIGQTAAHRLLDLMSGNNSTRNSIIDVLPIKRDSTEGHHHHHH	not failed
MEKRELKASVPKFDKIPWLSEASLVNKPLVLSLPRRYPHTSATFLTSSKKNMNLPILFQVPDVLSKARRNQCDSMLLRNQQLCSTCQEMKMVQPRTMKIPDDPKASFENCMSYRMSLHQPKFQTTPEPFHDDIPTENIHYRLPILGPRTAVFHGLLTEAYKTLKERQRSSLPRKEPIGKTTRQ	failed
MSTAAETTGGDIEPWEEVTPDAARRLLVAAVEAFAERGYHATTTRDIAGRAGMSPAALYIHYKTKEELLHRISRIGHTRAVAILRSAAQGEGSAAERLADAVSSFVRWHAGRRTTARVVQYELDALGPEAREEILTLRRQCDAAVRGIIDDGVAAGEFDVPDVKGTTLAVLSLCIDVARWFNVNGPRTPDEVGALYADLVLRMVGAEPSGATAQR	not failed
MMRHERLRFWLAGLAAAATGWLCYAGLARLAGALGVATWIPYPALRRQWLLIGESWQSAEFSGAIADASVFLTALAAVAAYYCARIVYHLSFAPVRQRRARWLIAGWIVGTVAMVALSQSLGWLYGAFPGFARIGWLSAALGFAVLAGAASGFARAWGRLMRARKVPATE	failed
MDSQSENGSGAGNRTSIERRGDRELVVTRTFDAPRAMVYRAWSEPELFRRWWMPKSATGVTLVSCDMDVRTGGKYRLEFSTGGPQTMAFYGKYLDVVPNERIVWTNDEGEADAGEKGAITTVTFEDHGSQTLLRFHEVYPTAEALEEALQGSAAALPEQFDQLGEVLSGSGGKQ	failed
MTSQVANPPVQSIRLLFSALLLVMLLSALDQTIVSTALPTIVGELGGLDKLSWVVTAYILSSTIAVPLYGKFGDLFGRKIVLQVAIGLFLVGSALCGLAQNMTQLVLMRGLQGLGGGGLMVISMAAVADVIPPANRGRYQGLFGGVFGLATVIGPLIGGFLVQHASWRWIFYINLPLGLFALLVIGAVFHSSNKRSQHQIDWLGAIYLSMALLCIILFTSEGGSVHAWNDPQLWCILAFGIVGIIGFIYEERMAAEPIIPLALFRNRSFLLCSLIGFVIGMSLFGSVTFLPLYLQVVKEATPTEAGLQLIPLMGGLLLTSIISGRIISRTGKYRLFPILGTLLGVTGMVLLTRITIHSPLWQLYLFTGVLGAGLGLVMQVLVLAVQNAMPAQMYGVATSGVTLFRSIGGSIGVALFGAVFTHVLQSNLQQLLPEGAVLPPGMNPVAVQHLPADIRLDYLDAFGAAIHAAFLMAAGIMAVAFVLSWLLKEAPLKTATH	failed
MQKSDALALDGSAALAEPVPATEIARGIAVLAAPTSLVAFLQAGAQLIETWLAARQGTASLAGWAVVLPFALLLQQMSTGAMGGGVVSAIARALGGGKREEASSLVLHALIIAVTAGLIFAIVLAGFPRSVFGAVAGATAAEAAASYAIWLFGAGAVPAWLANTLASVLRGGGRHALAARVLGGMWVVFPVLSWWLAERVGMGLAGIGAALAAVSWGAALVMAYVVFRGGAGFVPSLRIRPSKALFYRILSIGLVACALASVANLTTILVTAQLRHYGTTTVAAYGISARLEFLMIPLAFGVGSALTALVGRAVGAGDWHTARRTAWVGALLALLIAGTVGAAVGLAPNQFAGLFTQDPNVGAIAARALSWVGPAFGGFGLGMALYFASMGAGRMRWPIAAGLCRIALAAGGGWLLANVAGMGLDGHFLGVALGITSYGLVTAIGVRKGEWSPRH	failed
GMNSGKVAFIVTKNGKRICDVIDECSQRGSTILKAQGGYKQDDIQVVMCACNSKEMYQVRKSVKDTDPDSFIVVVESHEVHGEGFKMTNIGEAEN	failed
MILLYLHIYEQKGSGTLNPVAFTLFGLEIRWYGILIATGVILGLFMAYSNSKLREIEYDSVLDIILISLPIGIIGARLYYVIFQFKSYNGNIIDMINIRNGGLAIHGGLIFGCLAAYIYSRYKKLSFLKLMDIAAPSIILAQALGRWGNFFNGEAHGGPVTYSFIEKFPKFIQKGMTIDGMYYNPTFLYESTWDFVTFIILMLLIRKCKNKGVVFFGYVGLYSLGRFFIEGMRTDSLMLGPIRVAQLVSILGMLISLGFITFSYVKTKRISK	failed
MANADLDKQPDSVSSVLKVFGILQALGEEREIGITELSQRVMMSKSTVYRFLQTMKTLGYVAQEGESEKYSLTLKLFELGARALQNVDLIRSADIQMRELSRLTKETIHLGALDEDSIVYIHKIDSMYNLRMYSRIGRRNPLYSTAIGKVLLAWRDRDEVKQILEGVEYKRSTERTITSTEALLPVLDQVREQGYGEDNEEQEEGLRCIAVPVFDRFGVVIAGLSISFPTLRFSEERLQEYVAMLHTAARKISAQMGYHDYPF	not failed
MTKILAIIGARLNSSRLAGKHLLPLACDAAGNTLPIIGHILRRLKTCSTISSIELATTADEFNQPLINWAQENQLTCVPFEGDVNDLMGRLDRIIQRQQPDYIVYICGDCPLIDPNFIDHALLALKASDKDTITLKEGIISLHEGIGFYTRSGWNRLMAVSDCVMSREHVGYGDKLRPVLTKLYIDDSGNYGKITHRISVDTHADYRFMVEVYRRWYVNNPTETVVSLEWVQEELLKDSALFAINAHVQQKAANKNYAKASIYCHLGPQIGLGHFKRSELIANALQEHLSLGVNIHAYSEAGQRLDSSSKVVWHEDEQALLSALTEDQNPLVLLDFHPNFIDLESFANRLAGLAKHGAKRIGIDKMAPLLDELDWLFIPSFNSPTHHPKISAGWRNYLFSTIPQATKQAQILVLTGGSDALGYGRELPTILDSIGTDWPILWIQGPLAPAPQLTPNSAIVVQQNPDNLKEIIAQSEIILSCYGLSLFESIYGKAATLLLPPQHLCDEAELFALNQERCCLVSDSLEEAKMMLQQLLTEPEQRRSLQNQATRVFESHQGIQALIDDIHHLLGAVN	failed
